# Test results reported in PMC2154361.
# Molecular target: RIM1α C2B domain
# Experiment: AUC
substance,measurement,value
RIM1α C2B domain (domain or fragment),Kd,90 µM
same,stoichiometry N,2
